From paper PMC11363339, “Structural Basis for Methine Excision by a Heme Oxygenase-like Enzyme” (ACS Central Science, 2024)

Molecular target: the molecule itself
Assay: SEC-MALS; size exclusion chromatography coupled with multiangle light scattering on FlcD without a His6-tag

B1: FlcD without a His6-tag (FlcD_(tagless)) (enzyme, Pseudomonas aeruginosa)
chain: MNTRNFSLPQLQNLPIEEARIVADALAVHATSRQIDSAASKLAALAEAGLKGDRQAYAAYQQLLYVLSLSDDVATAQTRRWLARAIYRVEERFMPAADLSRALSEEDFQKRLEQEIAAQSRERHPMSQYVFSGSASRAQLQVFLRHQWFRTFRLYRDAADLLVNLTDVDEAAALARYLYGELGEEDEKGSHPRLLAKLLEAIGLEADFQAVSTMPEEIAYLNNRARAFRHAEVGWGLAVFYITELVVPGNHEKLYRALLQAGLSEDQAEYYKVHISLVPPRAKREWQLIARRIPDVQFQNAFLTSLSQHFRVERAYYDAIWEEMQSVK
notes: FlcD, heme oxygenase-like domain-containing oxidase (HDO) of Pseudomonas aeruginosa, without a His6-tag; see the Supporting Information PDF
With B1 the “stoichiometry N” value was 2.
